Values quoted from earlier work in article PMC4434180.

Target: PriL (p58) NTD (Homo sapiens) (UniProt P49643)
Sequence of UniProt P49643 (P49643 1-253): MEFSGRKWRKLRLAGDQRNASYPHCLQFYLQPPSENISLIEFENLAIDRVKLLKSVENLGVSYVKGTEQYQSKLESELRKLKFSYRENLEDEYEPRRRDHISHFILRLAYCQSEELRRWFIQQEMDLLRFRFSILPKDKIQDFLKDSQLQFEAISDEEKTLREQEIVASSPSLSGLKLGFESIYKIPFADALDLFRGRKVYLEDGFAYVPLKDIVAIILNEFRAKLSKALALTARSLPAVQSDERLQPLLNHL

PriS (p49) (from UniProt P49642)
Kd: 0.46 nM
